# In publication PMC5855017, “Label-Free Aptasensor for Lysozyme Detection Using Electrochemical Impedance Spectroscopy”:
# Target: Lysozyme (UniProt P00698 19-147)
# Assay: electrochemical impedance spectroscopy (label-free aptasensor); PEG-blocked electrode; 0.25-5 uM lysozyme; LOD 1.67 uM, slope 0.090 uM-1 (not Kd); Room temperature incubation; buffers listed: PBS (187 mM NaCl, 2.7 mM KCl, 8.1 mM Na2HPO4, 1.76 mM KH2PO4, pH 7.0) and BB (1 mM MgCl2, 2.7 mM KCl, 140 mM NaCl)
# Settings: protein: commercial
# Chain of Lysozyme (P00698 19-147): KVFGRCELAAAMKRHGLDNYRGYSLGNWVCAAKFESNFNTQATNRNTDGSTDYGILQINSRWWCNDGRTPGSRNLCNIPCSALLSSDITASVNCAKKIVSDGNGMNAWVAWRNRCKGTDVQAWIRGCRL
binder,measurement,value
"ATCTACGAATTCATCAGGGCTAAAGAGTGCAGAGTTACTTAG (ssDNA, 5' aminolink C6, immobilized via amide bond on graphite-epoxy electrode) [AptLys (lysozyme aptamer)]",binding result,binds
